Results: article PMC7968844
Like-named read-outs stand apart in the source and are kept apart here.

| Substance | degradation_or_half_life (O-GlcNAc at S554) | degradation_or_half_life (O-GlcNAc at T553) |
| --- | --- | --- |
| ERα: ERα-2M (T553A + S554A) in GREB1-KO cells | no change | no change |
| ERα: GREB1-KO | decreases | decreases |
